For 4 molecules, binding result and T-cell transmigration induced by fractions 76-78 results are on record in US20170044234A1 (INSERM INSTITUT NATIONAL DE LA SANTE ET DE LA RECHERCHE …, published 2017).

B1: adaptor protein FADD (other, UniProt Q13158 1-208, looked up)
chain: MDPFLVLLHSVSSSLSSSELTELKFLCLGRVGKRKLERVQSGLDLFSMLLEQNDLEPGHTELLRELLASLRRHDLLRRVDDFEAGAAAGAAPGEEDLCAAFNVICDNVGKDWRRLARQLKVSDTKIDSIEDRYPRNLTERVRESLRIWKNTEKENATVAHLVGALRSCQMNLVADLVQEVQQARDLQNRSGAMSPMSWNSDASTSEAS
notes: Detected with an anti-human FADD mAb (clone 1); also called Fas-associated death domain protein
B2: CD95^(175-210)-mCherry (other)
chain: KRKEVQKTCRKHRKENQGSHESPTLNPETVAINLSD-mCherry
modifications: also: mCherry fused C-terminally, junction not given here
notes: Expressed in HEK cells together with PLCγ1; also called CID-mCherry; CID-mCHERRY; not shown: mCherry of vector pmCHERRY-N1, fused C-terminally
B3: GFP-fused CD95^1-175 (receptor)
chain: RLSSKSVNAQVTDINSKGLELRKTVTTVETQNLEGLHHDGQFCHKPCPPGERKARDCTVNGDEPDCVPCQEGKEYTDKAHFSSKCRRCRLCDEGHGLEVEINCTRTQNTKCRCKPNFFCNSTVCEHCDPCTKCEHGIIKECTLTSNTKCKEEGSRSNLGWLCLLLLPIPLIVWVK
notes: also called CD95 devoid of the entire intracellular domain; not shown: GFP of vector pEGFP-N1 (Clontech), fused C-terminally
B4: neutralizing anti-CD95L mAb (Nok1) (antibody, from another filing, V domains shown)
VH: VQLQESGPELVKPGASVKISCKASGYAFSSSWMNWVKQRPGKGLEWIGRIYPGDGDTNDNGKFKGKATLTADKSSSTAYMQLSSLTSEDSAVYFCARSYYYDGSPWFTYWGQGTTVTVSS
VL: DIQMTQSPSSLSASLGDRVTISCRASQDISNYLNWYQQKPDGTVKLLIYYTSRLHSGVPSRFSGSGSGTDYSLTISNLEPEDIATYFCQQYSEFPWTFGGGTKLEIKR

One assay concerns the target T1, GFP-fused CD95^1-210 (human, UniProt P25445 17-226).
T1 construct: also called CD95 construct devoid of DD; not shown: GFP of vector pEGFP-N1 (Clontech), fused C-terminally
T1 sequence: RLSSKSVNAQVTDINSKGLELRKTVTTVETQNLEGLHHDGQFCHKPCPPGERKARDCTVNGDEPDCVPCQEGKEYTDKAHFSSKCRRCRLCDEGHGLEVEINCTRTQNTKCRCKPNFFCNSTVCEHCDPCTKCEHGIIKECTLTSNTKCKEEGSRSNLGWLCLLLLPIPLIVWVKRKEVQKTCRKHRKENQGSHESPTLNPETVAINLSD
In words: co-immunoprecipitation with CD95 from transfected HEK cells stimulated with CD95L, immunoblot. A general note: A western blot detects proteins with antibodies after separation by electrophoresis.

The target of assay [1] is T2, Myc-tagged full-length human PLCγ1 (human, UniProt P19174 1-1290).
T2 construct: Transfected into HEK cells; also called wild type PLCγ1; phospholipase Cγ1; not shown: Myc tag of the pTriEx-4 construct
T2 sequence (looked up): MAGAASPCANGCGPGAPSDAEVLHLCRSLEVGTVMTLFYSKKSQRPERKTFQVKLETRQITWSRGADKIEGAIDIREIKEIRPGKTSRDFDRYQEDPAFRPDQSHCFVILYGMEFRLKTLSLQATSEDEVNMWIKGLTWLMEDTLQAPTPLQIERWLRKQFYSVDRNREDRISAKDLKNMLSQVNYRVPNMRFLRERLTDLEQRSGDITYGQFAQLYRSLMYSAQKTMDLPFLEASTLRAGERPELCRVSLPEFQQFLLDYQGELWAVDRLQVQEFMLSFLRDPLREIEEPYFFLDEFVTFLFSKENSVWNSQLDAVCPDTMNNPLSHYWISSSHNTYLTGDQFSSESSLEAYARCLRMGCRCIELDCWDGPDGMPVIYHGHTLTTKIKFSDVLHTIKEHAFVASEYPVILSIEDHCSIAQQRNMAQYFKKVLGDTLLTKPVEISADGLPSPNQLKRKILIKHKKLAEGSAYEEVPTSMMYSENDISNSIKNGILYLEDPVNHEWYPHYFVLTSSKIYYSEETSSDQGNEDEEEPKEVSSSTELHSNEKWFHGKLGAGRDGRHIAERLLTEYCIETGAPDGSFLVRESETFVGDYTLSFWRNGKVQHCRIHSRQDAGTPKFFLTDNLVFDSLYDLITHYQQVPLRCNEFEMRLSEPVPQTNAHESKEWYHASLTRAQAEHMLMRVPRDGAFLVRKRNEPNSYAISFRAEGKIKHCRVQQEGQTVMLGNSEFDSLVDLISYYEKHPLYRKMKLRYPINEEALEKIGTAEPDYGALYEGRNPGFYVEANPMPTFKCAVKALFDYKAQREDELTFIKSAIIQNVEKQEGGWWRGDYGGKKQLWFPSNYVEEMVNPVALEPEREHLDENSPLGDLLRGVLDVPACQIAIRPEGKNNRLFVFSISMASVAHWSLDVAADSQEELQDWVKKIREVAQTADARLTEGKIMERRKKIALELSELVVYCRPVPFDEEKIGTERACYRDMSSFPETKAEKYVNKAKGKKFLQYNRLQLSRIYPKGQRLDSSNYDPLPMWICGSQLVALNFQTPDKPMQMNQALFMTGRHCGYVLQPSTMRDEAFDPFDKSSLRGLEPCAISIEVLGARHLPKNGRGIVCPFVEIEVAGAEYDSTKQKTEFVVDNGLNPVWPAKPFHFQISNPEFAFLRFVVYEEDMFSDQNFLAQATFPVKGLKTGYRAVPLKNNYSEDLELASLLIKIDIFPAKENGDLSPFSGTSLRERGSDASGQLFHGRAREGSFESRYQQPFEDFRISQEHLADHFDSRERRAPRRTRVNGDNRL
Briefly: PLCγ1 immunoprecipitation from HEK cells co-transfected with PLCγ1 and CID-mCherry, immunoblot.

The target in the assay “adaptor protein FADD” is B1. In words: co-immunoprecipitation with CD95 from transfected HEK cells stimulated with CD95L, immunoblot.
Procedure: (§1) The immune complex was resolved by SDS-PAGE, and the indicated immunoblotting was performed. Total lysates were loaded as a control. […] The immune complex was resolved by SDS/PAGE, and the indicated immunoblottings were performed. Total lysates were loaded as a control. […] The immune complex was resolved by SDS-PAGE, and the indicated immunoblotting was performed. Total lysates were loaded as a control. […] The immune complex was resolved by SDS-PAGE, and the indicated immunoblotting was performed. Total lysates were loaded as a control. E. Jurkat and CEM were loaded with FuraPE3-AM (1 μM), pretreated for 1 h with 10 μM of TAT-control or TAT-CID and then stimulated with 100 ng/ml of cl-CD95L (black arrow). Ratio images were taken every 10 s and were normalized vs pre-stimulated values. F. Human PBLs from healthy donors were loaded with furaPE3-AM (1 μM) pretreated for 1 h with 10 μM of TAT-control or TAT-CID or with the IP3R inhibitor Xestospongin C (positive control, 1 μM, 1 h) and then stimulated with 100 ng/ml of cl-CD95L (black arrow). Ratio values (R) were normalized vs pre-stimulated values (R0). Data represent mean±SD of R/R₀ measured in n cells.
The target of assay [2] is T2, Myc-tagged full-length human PLCγ1. The assay is described as above.
Procedure: as §1
The target in assay [3] is serum CD95L of SLE patients (soluble, homotrimeric) (human) (UniProt P48023). Briefly: cell-based or functional assay.
serum CD95L of SLE patients (soluble, homotrimeric) (human), sequence (P48023 130-281 limits assumed): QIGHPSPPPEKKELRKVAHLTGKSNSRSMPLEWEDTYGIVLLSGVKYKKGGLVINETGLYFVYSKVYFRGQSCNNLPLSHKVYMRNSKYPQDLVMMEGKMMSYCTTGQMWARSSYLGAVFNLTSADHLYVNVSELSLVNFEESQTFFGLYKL

Ends that are not written are not given here.

Procedure for GFP-fused CD95^1-210: as §1

For B1, the binding result in the assay with GFP-fused CD95^1-210 is on record as “no binding”.
Consider B2, for which the binding result in assay [1] is reported as “binds”.
Turning to B3, the binding result (with adaptor protein FADD; in assay [2]) was “no binding” throughout.
In assay [3], B4 came in with a T-cell transmigration induced by fractions 76-78 below 50%.
